Data published in US20250026792A1, “SELF-ASSEMBLING PEPTIDES WITH HYALURONIC ACID BINDING DOMAINS AND METHODS OF USE THEREOF” (Northwestern University, priority 2022, published 2025).
“Also recorded” adds a separate entry of the source. One block for each molecule: values may come before it. The star is where a group is joined. Biotin = O=C1N[C@H]2[C@H](CS[C@H]2CCCCC(=O)*)N1

Tests used:
[1] = ECM specificity binding test, hyaluronic acid coating; conditions: 5.0 mg/ml peptide, FIG. 4
Description: (§1) Peptides were incubated 24 hours at 37° C. on collagens I-IV, elastin, hyaluronic acid, and Geltrex. Coatings (10 pig/cm^2) were previously dried overnight in milli-Q water. Overall significance was assessed using analysis of variance, with Tukey's multiple comparison post-hoc analysis between ECM groups where n=4.
(§2) Hyaluronic acid, collagens I, II, III, and IV, elastin, and Geltrex were coated onto 96-well black plates (medium binding affinity) at 10 μg/cm^2 and were dried in milli-Q water at room temperature. N-termini biotinylated peptides were added to coated plates at 0, 1, 2.5, 5 and 10 mg/ml overnight at 37° C. in phosphate buffered saline (PBS), pH 7.4, after which the plates were washed three times with PBS. Fluorescent streptavidin-488 (4 μg/mL) was added to each well and incubated at 37° C. temperature for 24 hours, then thoroughly washed with PBS. The plates were read with a fluorescence microplate reader for fluorescence intensity (Ex 490 nm, Em 525 nm). All data were normalized to the background fluorescence intensity of Streptavidin-488.

[2] = Concentration-dependent peptide binding to hyaluronic acid coating (biotin-streptavidin fluorescence)
Description: Peptides were incubated 24 hours at 37° C. Coatings (10 μg/cm^2) were previously dried overnight in milli-Q water. Overall significance was assessed using analysis of variance, with Tukey's multiple comparison post-hoc analysis between 1-scrm and experimental groups where n=4.
N-termini biotinylated peptides were added to coated plates at 0, 1, 2.5, 5 and 10 mg/ml overnight at 37° C. in phosphate buffered saline (PBS), pH 7.4, after which the plates were washed three times with PBS.

[3] = Transmission electron microscopy (TEM) of peptide nanostructures; format: physicochemical
Description: The sample and stain were filter-dried in between steps. Samples were collected 24 hours at 37° C. after 30 minutes of sonication. All TEM was performed on a Philips FEI Technai Spirit G2 electron microscope. Peptides were incubated in both PBS and SC.

[4] = system: extracellular matrix (ECM) components: Collagen type I, II, III and IV, elastin, hyaluronic acid and Geltrex; assay: ECM specificity binding test, whole panel; conditions: 5.0 mg/ml peptide, FIG. 4
Description: as §1, §2

elastin = biological target: T1, elastin (Bos taurus, UniProt P04985); assay: ECM specificity binding test, elastin coating; parameters: species or system bovine; conditions: 5.0 mg/ml peptide, FIG. 4
T1 construct: purchased Sigma-Aldrich
T1 sequence (P04985 27-747): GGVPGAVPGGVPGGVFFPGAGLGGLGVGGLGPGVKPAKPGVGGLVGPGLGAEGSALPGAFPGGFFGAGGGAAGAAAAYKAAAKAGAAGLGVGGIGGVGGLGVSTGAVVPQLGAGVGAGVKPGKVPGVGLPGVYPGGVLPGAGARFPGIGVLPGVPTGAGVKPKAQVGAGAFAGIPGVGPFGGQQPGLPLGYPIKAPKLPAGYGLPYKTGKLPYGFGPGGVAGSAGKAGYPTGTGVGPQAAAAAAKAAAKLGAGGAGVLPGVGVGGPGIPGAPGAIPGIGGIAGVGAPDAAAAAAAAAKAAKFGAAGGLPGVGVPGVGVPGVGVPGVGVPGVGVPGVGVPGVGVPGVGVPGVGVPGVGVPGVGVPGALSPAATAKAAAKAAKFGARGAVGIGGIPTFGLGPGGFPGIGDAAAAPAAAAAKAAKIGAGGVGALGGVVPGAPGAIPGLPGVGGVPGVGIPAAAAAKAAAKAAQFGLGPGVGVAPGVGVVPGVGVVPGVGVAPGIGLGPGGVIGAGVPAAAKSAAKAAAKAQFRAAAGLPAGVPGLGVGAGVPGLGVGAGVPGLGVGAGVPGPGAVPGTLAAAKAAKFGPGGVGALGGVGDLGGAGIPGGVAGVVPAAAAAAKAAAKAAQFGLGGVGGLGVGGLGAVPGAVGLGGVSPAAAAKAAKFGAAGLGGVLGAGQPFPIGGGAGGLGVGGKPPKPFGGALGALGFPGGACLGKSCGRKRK
Description: as §1
Biotinylated peptides were custom synthesized by ABI Scientific, Inc. (Sterling, VA). Uranyl acetate and TEM grids were from Ted Pella, Inc (Redding, CA). Unless specified otherwise, all water used in these experiments was Milli-Q grade. HA (˜1 MDa), collagen types I (rat), II (chicken), III (human), and IV (mouse), elastin (bovine), deuterium oxide (D2O), acetic acid-d4, sodium acetate-d3, 3-(Trimethylsilyl)propionic-2,2,3,3-d6 (DSS-D6) acid sodium salt, and 2,2,2-trifluoroethanol (TFE) and were obtained from Sigma-Aldrich (St. Louis, MO). Streptavidin (Alexa Fluor 488 conjugate) and Geltrex were obtained from Thermo Fisher Scientific Inc. (Waltham, MA). Sodium hyaluronate (5 and 60 KDa) was purchased from Lifecore Biomedical LLC (Chaska, MN). In reference to terminology, N and C termini is used to describe the amino terminal (N) and the carboxyl terminal (C) of the peptide. The biotinylated peptides are used in every experiment.
as §2

[5] = Circular dichroism (CD) of peptides; format: physicochemical; conditions: 20 mM Sodium Cacodylate; for Ellipticity ratio (222 nm/208 nm) / Ellipticity 208 nm / Ellipticity 222 nm: 1.25 mg/mL; for Ellipticity 208 nm / Ellipticity 222 nm: CD data given as [θ]M×10^−3; for wavelength Minimum of CD profile: 5.0 mg/mL
Description: Data is presented in ellipticity ([θ]M×10^−3) as a function of spectral wavelength (λ).
Sodium cacodylate (SC), 20 mM pH 7.4, without and with 20% TFE was used to reduce phosphate related background signal and enhance detected structures. Circular dichroism (CD) data were collected in millidegrees, 0, and converted to molar ellipticity, [θ]M, and are expressed in units of deg×cm^2×dmol^−1. Scan speeds and digital integration times were 500 nm/min and 1 second, respectively. The data on the Y axis of the CD plots is [θ]M×10^−3. […] Consequently, CD signals are reported in the 190-260 nm range.

elastin (bovine) = biological target: T2, elastin (bovine) (bovine, UniProt P04985 27-747, limits assumed); assay: plate assay: biotinylated peptide (5.0 mg/ml) on dried ECM coating, streptavidin-488 fluorescence
T2 construct: Coated and dried on plates at 10 ug/cm2
T2 sequence (looked up): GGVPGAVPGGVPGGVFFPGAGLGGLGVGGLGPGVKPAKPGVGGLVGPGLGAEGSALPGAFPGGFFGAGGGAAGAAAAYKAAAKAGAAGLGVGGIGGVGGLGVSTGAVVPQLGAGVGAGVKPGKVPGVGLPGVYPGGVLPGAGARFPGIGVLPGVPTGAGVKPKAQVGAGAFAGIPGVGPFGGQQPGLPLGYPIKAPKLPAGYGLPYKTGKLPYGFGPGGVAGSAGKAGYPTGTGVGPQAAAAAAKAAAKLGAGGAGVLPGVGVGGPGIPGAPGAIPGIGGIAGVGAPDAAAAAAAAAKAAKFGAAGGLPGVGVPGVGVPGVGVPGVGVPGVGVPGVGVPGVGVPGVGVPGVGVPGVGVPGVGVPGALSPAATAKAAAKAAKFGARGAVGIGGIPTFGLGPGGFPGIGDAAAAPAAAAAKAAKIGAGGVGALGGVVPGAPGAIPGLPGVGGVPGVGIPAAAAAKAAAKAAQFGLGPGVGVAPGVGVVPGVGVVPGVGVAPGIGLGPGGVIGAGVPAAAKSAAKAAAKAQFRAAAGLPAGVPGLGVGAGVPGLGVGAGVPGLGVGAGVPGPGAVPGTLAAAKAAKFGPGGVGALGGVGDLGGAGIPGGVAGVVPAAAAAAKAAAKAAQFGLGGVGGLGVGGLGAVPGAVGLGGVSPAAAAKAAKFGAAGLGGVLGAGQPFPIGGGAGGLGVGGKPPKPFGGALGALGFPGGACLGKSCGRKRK
Description: as §1, with “pig/cm²)” for “pig/cm^2)”
as §2, with “N-termini” for “Hyaluronic acid, collagens I, II, III, and IV, elastin, and Geltrex were coated onto 96-well black plates (medium binding affinity) at 10 μg/cm^2 and were dried in milli-Q water at room temperature. N-termini”

binding to hyaluronic acid in specificity testing [1]: predominantly | binding to hyaluronic acid with increasing concentrations of peptide (fluorescence intensity) ([2]; 0-10 mg/ml peptide, PBS pH 7.4, 37° C., HA coating 10 μg/cm^2, FIG. 3): increases dramatically | specificity of binding to ECMs [4]: lower specificity than 17x-3 | binding to elastin (elastin): moderately
Molecule: LKTKIKIIVKTKSSAKLRSKLVNSHKI [Peptide 4, 8h-2 variant]
HA binding, overall assessment ([2]; summary and discussion statements): comparable binding; also recorded: HA specific and robust binders | TEM characterization, Phosphate Buffered Saline (i) ([3]; PBS pH 7.4, 0.5% w/v, 30 minutes sonication, 24 hrs at 37° C.): fibers that contain two striations (fibrils) | nanofiber formation in TEM, overall ([3]; both PBS and sodium cacodylate): consistent nanofibers; also recorded: predominantly form fibers with striations and furthermore form a mesh network | Ellipticity ratio (222 nm/208 nm) [5]: 0.54 | Ellipticity 208 nm [5]: −112 | Ellipticity 222 nm [5]: −60.3 | wavelength Minimum of CD profile [5]: 225 nm | Ellipticity ratio (222 nm/208 nm) ([5]; 20% TFE): 0.97 | Ellipticity 208 nm ([5]; 20% TFE): −364 | Ellipticity 222 nm ([5]; 20% TFE): −353 | wavelength Minimum of CD profile ([5]; 20% TFE): 224 nm

binding result (elastin (bovine)): binds
B1: Peptide 4 (peptide)
peptide: Biotin-LKTKIKIIVKTKSSAKLRSKLVNSHKI-OH
SMILES: CC[C@H](C)[C@H](NC(=O)[C@H](CCCCN)NC(=O)[C@H](Cc1c[nH]cn1)NC(=O)[C@H](CO)NC(=O)[C@H](CC(N)=O)NC(=O)[C@@H](NC(=O)[C@H](CC(C)C)NC(=O)[C@H](CCCCN)NC(=O)[C@H](CO)NC(=O)[C@H](CCCNC(=N)N)NC(=O)[C@H](CC(C)C)NC(=O)[C@H](CCCCN)NC(=O)[C@H](C)NC(=O)[C@H](CO)NC(=O)[C@H](CO)NC(=O)[C@H](CCCCN)NC(=O)[C@@H](NC(=O)[C@H](CCCCN)NC(=O)[C@@H](NC(=O)[C@@H](NC(=O)[C@@H](NC(=O)[C@H](CCCCN)NC(=O)[C@@H](NC(=O)[C@H](CCCCN)NC(=O)[C@@H](NC(=O)[C@H](CCCCN)NC(=O)[C@H](CC(C)C)NC(=O)CCCC[C@@H]1SC[C@@H]2NC(=O)N[C@@H]21)[C@@H](C)O)[C@@H](C)CC)[C@@H](C)CC)[C@@H](C)CC)C(C)C)[C@@H](C)O)C(C)C)C(=O)O
notes: Variant of peptide 8h-2; biotinylated synthetic peptide

binding result (elastin (bovine)): binds
B2: Peptide BHP4 (peptide)
peptide: Biotin-TNLRNKYTFLARARANLAVRNKQNIKS-OH
SMILES: CC[C@H](C)[C@H](NC(=O)[C@H](CC(N)=O)NC(=O)[C@H](CCC(N)=O)NC(=O)[C@H](CCCCN)NC(=O)[C@H](CC(N)=O)NC(=O)[C@H](CCCNC(=N)N)NC(=O)[C@@H](NC(=O)[C@H](C)NC(=O)[C@H](CC(C)C)NC(=O)[C@H](CC(N)=O)NC(=O)[C@H](C)NC(=O)[C@H](CCCNC(=N)N)NC(=O)[C@H](C)NC(=O)[C@H](CCCNC(=N)N)NC(=O)[C@H](C)NC(=O)[C@H](CC(C)C)NC(=O)[C@H](Cc1ccccc1)NC(=O)[C@@H](NC(=O)[C@H](Cc1ccc(O)cc1)NC(=O)[C@H](CCCCN)NC(=O)[C@H](CC(N)=O)NC(=O)[C@H](CCCNC(=N)N)NC(=O)[C@H](CC(C)C)NC(=O)[C@H](CC(N)=O)NC(=O)[C@@H](NC(=O)CCCC[C@@H]1SC[C@@H]2NC(=O)N[C@@H]21)[C@@H](C)O)[C@@H](C)O)C(C)C)C(=O)N[C@@H](CCCCN)C(=O)N[C@@H](CO)C(=O)O
notes: Variant of BHP3; biotinylated synthetic peptide; also called BPH4

binding result (elastin (bovine)): binds
B3: Peptide 7c (peptide)
peptide: Biotin-KTKATVKIKNKQKSVNALKQKIVLLSK-OH
SMILES: CC[C@H](C)[C@H](NC(=O)[C@H](CCCCN)NC(=O)[C@@H](NC(=O)[C@@H](NC(=O)[C@H](C)NC(=O)[C@H](CCCCN)NC(=O)[C@@H](NC(=O)[C@H](CCCCN)NC(=O)CCCC[C@@H]1SC[C@@H]2NC(=O)N[C@@H]21)[C@@H](C)O)[C@@H](C)O)C(C)C)C(=O)N[C@@H](CCCCN)C(=O)N[C@@H](CC(N)=O)C(=O)N[C@@H](CCCCN)C(=O)N[C@@H](CCC(N)=O)C(=O)N[C@@H](CCCCN)C(=O)N[C@@H](CO)C(=O)N[C@H](C(=O)N[C@@H](CC(N)=O)C(=O)N[C@@H](C)C(=O)N[C@@H](CC(C)C)C(=O)N[C@@H](CCCCN)C(=O)N[C@@H](CCC(N)=O)C(=O)N[C@@H](CCCCN)C(=O)N[C@H](C(=O)N[C@H](C(=O)N[C@@H](CC(C)C)C(=O)N[C@@H](CC(C)C)C(=O)N[C@@H](CO)C(=O)N[C@@H](CCCCN)C(=O)O)C(C)C)[C@@H](C)CC)C(C)C
notes: Variant of 17x-3; biotinylated synthetic peptide
